Test [1] addresses endogenous BRCA1 from 293T cell nuclear extracts (UniProt P38398 1-1863, limits assumed). As to the kind of experiment: peptide pull-down from 293T nuclear extracts (FIG. 4I).
The target in test [2] is T1, GST-tagged N-motif (1-205) of the WSTF kinase domain (human, UniProt Q9UIG0 1-205).
T1 construct: Made in E. coli; also called GST-tagged WAC N-; N-terminal motif; not shown: N-terminal GST tag of pGex6p
T1 sequence: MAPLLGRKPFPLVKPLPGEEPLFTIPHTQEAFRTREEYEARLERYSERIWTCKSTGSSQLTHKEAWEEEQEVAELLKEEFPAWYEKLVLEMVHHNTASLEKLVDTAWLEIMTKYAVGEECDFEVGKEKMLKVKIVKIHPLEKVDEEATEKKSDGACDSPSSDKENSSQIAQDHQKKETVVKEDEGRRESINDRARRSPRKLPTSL
As to the kind of experiment: co-expression in E. coli, amylose affinity purification against the MBP tag, Superdex 200 gel filtration. The protocol: For co-expression of the N- and C-motifs of WSTF, the recombinant plasmid vectors carrying the N- and C-motif constructs (above) were transformed into E. coli host strain Rosetta2 (DE3) (Novagen) for protein expression under triple antibiotic selection (ampicillin, kanamycin, and chloramphenicol) in LB medium. After overnight induction by 0.4 mM isopropyl β-D-thiogalactoside at 25° C., cells were harvested in buffer 0.4 M KCl, 20 mM Tris, pH 7.5. Co-expressed proteins were affinity purified using Amylose resin (New England Biolabs, MA) against the MBP tag. Maltose-eluted samples were purified through a Superdex 200 column (GE Healthcare) in the elution buffer (50 mM KCL, 20 mM Tris, pH 7.5). Most proteins were eluted in a single peak that contains GST-tagged […] with a stoichiometry of 1:1.
In general terms: SEC sorts molecules by how far they enter the pores of the column.

Where no end group is shown, it is not given here. [ ]: non-standard residue; d: D form. pS = N[C@@H](COP(=O)(O)O)C(=O)O

Chain of endogenous BRCA1 from 293T cell nuclear extracts (P38398 whole entry, the tested form may be a part): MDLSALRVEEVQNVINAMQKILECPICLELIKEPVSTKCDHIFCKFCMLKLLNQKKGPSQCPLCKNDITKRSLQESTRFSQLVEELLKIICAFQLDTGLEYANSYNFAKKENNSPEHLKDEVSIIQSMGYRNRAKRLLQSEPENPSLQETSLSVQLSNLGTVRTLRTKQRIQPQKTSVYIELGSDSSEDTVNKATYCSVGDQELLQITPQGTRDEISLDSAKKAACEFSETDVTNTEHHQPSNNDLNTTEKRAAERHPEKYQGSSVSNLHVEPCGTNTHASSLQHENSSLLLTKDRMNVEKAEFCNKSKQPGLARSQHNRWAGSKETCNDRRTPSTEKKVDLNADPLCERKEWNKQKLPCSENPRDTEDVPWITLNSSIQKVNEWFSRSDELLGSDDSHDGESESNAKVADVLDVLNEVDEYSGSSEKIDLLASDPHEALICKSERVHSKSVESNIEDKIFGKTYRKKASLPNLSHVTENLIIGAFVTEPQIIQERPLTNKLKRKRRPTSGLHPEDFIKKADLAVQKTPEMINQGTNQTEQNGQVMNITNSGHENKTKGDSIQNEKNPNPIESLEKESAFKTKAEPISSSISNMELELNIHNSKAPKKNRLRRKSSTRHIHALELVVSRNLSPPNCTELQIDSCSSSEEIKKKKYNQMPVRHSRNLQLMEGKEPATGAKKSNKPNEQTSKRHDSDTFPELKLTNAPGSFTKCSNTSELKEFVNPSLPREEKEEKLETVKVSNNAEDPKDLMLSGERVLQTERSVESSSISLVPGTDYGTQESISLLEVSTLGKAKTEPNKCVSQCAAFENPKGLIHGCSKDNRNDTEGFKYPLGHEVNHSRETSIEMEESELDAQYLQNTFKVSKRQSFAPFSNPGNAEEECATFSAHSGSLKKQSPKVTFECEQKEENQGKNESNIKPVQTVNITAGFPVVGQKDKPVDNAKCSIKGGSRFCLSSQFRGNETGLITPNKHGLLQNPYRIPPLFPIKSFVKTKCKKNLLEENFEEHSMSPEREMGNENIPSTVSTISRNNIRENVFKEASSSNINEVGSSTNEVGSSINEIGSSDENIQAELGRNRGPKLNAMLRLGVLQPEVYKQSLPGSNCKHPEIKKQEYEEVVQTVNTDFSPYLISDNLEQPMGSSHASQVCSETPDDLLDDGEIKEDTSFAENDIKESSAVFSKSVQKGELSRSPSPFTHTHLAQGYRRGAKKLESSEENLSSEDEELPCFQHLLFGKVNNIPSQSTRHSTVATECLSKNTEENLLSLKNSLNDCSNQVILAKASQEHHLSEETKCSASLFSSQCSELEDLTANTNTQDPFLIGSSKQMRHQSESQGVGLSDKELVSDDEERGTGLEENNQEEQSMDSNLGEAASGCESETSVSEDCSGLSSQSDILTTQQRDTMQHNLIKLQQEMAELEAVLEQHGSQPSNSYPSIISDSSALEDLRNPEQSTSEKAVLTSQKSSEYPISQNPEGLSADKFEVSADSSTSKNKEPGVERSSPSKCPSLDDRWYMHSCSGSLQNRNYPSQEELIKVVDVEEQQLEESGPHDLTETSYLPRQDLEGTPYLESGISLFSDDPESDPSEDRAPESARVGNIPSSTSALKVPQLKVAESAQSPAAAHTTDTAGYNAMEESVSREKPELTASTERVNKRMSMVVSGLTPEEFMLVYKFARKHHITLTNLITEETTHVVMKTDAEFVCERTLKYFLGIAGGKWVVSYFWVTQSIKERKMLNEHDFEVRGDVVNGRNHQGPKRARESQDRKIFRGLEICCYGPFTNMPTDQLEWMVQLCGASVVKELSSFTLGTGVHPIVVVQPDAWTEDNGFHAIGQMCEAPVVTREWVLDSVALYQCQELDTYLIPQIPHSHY

B1: H2A.X peptide S139(ph), N-CPSGGKKATQApSQEY-C (peptide)
peptide: CPSGGKKATQA[pS]QEY
notes: Pull-down peptide; also called Ser139(ph) peptides; H2A.X peptides singly phosphorylated on Ser139
For the molecule B1, in test [1], the binding result was “no binding”.

B2: MBP-tagged C-motif (208-345) of the WSTF kinase domain (other)
chain: GERKWAPPKFLPHKYDVKLQNEDKIISNVPADSLIRTERPPNKEIVRYFIRHNALRAGTGENAPWVVEDELVKKYSLPSKFSDFLLDPYKYMTLNPSTKRKNTGSPDRKPSKKSKTDNSSLSSPLNPKLWCHVHLKKS
notes: Made in E. coli; also called MBP-tagged WAC C-motif; not shown: N-terminal MBP tag of a modified pRSFDuet-1
As for B2, in test [2], the binding result was “binds”.

The values above are taken from patent US20100080799A1 (ROCKEFELLER UNIVERSITY, published 2010).
